Assay results reported in publication PMC9456098, “Crystal Structure of the Recombination Mediator Protein RecO from Campylobacter jejuni and Its Interaction with DNA and a Zinc Ion”.

Experiments:
[1] = tested on: cjSSB (Campylobacter jejuni (strain ATCC 33291?)); assay: fluorescence polarization; details: FP: 20 mM Tris pH 8.0, 30 mM NaCl, 5 mM beta-mercaptoethanol, 0.8 nM fluorescein-ssDNA; temperature not stated; one-site model
cjRecO = target: T1, cjRecO (Campylobacter jejuni subsp. jejuni ATCC …, UniProt Q0PC17 1-204); assay: fluorescence polarization; no saturation up to 100 uM; binding detectable from ~1 uM; Kd stated as at least 20 uM; FP: 20 mM Tris pH 8.0, 30 mM NaCl, 5 mM beta-mercaptoethanol, 0.8 nM fluorescein-ssDNA; temperature not stated; one-site model; details: protein: recombinant; tags: N-terminal His6 removed by thrombin (tag-free); single strand
T1 sequence: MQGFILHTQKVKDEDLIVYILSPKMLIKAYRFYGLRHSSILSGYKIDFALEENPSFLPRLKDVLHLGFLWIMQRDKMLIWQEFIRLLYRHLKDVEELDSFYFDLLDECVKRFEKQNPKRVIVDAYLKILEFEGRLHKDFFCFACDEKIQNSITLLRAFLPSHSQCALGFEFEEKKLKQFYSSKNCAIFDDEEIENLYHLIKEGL

**Q.** Which Kd [1] does the source give for “TTATAGGCATATAGGAGTAATTTTCTTGGGCTATGCAGTA [40-mer ssDNA]” here?
**A.** 21.4 nM

**Q.** How did the Kd (cjRecO) turn out when TTATAGGCATATAGGAGTAATTTTCTTGGGCTATGCAGTA (ssDNA) [40-mer ssDNA] was run?
**A.** > 20 µM
